This assay concerns the target M. tuberculosis Lsr2 R86A mutant protein (M. tuberculosis). The experiment in a line: cross-linking.

Several values for one entry are separate records, joined by “and”; a condition that tells them apart may be missing. Equal values may be shown once.

Usually stoichiometry N stands for the number of molecules, sites or subunits per partner or assembly.

On to “M. tuberculosis Lsr2 R86A mutant protein (natural protein)”, for which the stoichiometry N is 2 and 4.

The record behind these values is publication PMC2367712.
